# Measured values published in patent US7867500B2, “Cofactor that modulates steroid receptor activities” (The United States of America as represented by the …, priority 2004, dated 2011).
# How the values were obtained:
# [1] = tested on: GR repression of an AP-1 induced gene; assay: GR-mediated repression of PMA-induced AP-1/Luc reporter in U2OS.rGR cells; format: cell-based; settings: for fold repression of PMA-induced AP-1 expression by Dex-bound GR: 25 μM PMA ± 0.1 μM Dex, TIF2 20 ng, STAMP 100 ng plasmid
# Description: FIG. 5A-F illustrate STAMP modulation of GR-mediated repression. […] U2OS.rGR cells were transiently transfected with ±TIF2 (20 ng)±STAMP (100 ng) plasmids, AP-1/Luc reporter (20 ng), and Renilla control (10 ng) plasmid. The cells were induced with ethanol (EtOH) or 25 μM PMA±0.1 μM Dex. […] The average values±S.E.M. of four experiments are plotted. The numbers in parentheses above the bars labeled “PMA+Dex” represent the average fold repression caused by Dex± the various factors.
# FIG. 5B illustrates that functional TIF2 is needed for optimal STAMP activity. U2OS.rGR cells were transiently transfected and processed as described for FIG. 5A but less STAMP (50 ng) was used and two concentrations of TIF2 or TIF2m123 (10 and 20 ng) were employed. The average values±S.E.M. of 4-5 experiments are plotted. An asterisk indicates a significant difference (P≦0.031) between samples containing equal amounts of TIF2 and TIF2m123.
# Rogatsky et al. have reported that TIF2 augments GR repression of an AP-1 induced gene. […] The TIF2 domain identified as having TIF2 activity in GR repression was the same as used to isolate STAMP. In order to determine if STAMP was active in GR-mediated gene repression as well as induction, the ability of STAMP to increase the repressive activity of GR in the AP-1 responsive whole cell bioassay system was assessed using U2OS.rGR cells.
# [2] = target: T1, glucocorticoid receptor (GR) (Rattus norvegicus, UniProt P06536); assay: GR-mediated induction of GREtkLUC reporter, transient transfection of CV-1 cells
# T1 sequence (P06536 1-795): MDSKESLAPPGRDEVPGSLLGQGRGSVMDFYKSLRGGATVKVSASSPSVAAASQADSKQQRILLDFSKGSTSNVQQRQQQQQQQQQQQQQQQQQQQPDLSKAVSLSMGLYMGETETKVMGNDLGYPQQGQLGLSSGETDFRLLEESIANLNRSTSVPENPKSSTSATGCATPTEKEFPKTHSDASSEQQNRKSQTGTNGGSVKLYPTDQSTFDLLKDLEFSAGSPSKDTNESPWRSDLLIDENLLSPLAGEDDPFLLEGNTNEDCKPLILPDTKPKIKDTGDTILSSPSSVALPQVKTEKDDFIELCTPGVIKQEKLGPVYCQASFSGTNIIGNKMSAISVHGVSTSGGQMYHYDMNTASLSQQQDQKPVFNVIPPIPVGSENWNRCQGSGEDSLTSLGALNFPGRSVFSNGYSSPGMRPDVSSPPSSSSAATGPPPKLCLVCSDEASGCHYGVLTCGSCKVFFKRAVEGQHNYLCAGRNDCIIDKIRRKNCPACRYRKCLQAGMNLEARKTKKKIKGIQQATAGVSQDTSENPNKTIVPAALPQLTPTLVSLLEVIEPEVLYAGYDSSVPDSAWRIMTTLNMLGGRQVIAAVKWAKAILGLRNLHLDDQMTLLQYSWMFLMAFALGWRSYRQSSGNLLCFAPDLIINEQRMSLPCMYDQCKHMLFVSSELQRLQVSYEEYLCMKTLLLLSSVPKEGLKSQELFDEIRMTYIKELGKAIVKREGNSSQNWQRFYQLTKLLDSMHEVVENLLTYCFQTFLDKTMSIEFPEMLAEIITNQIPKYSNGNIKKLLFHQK
# Description: Triplicate samples of CV-1 cells were transiently transfected with GR (6 ng)±TIF2 (20 ng)±STAMP (160 ng) plasmids, GREtkLUC reporter, and Renilla control plasmid. […] FIG. 4B illustrates the fold changes in GR induction parameters by STAMP and TIF2. […] The fold-increase in each parameter was determined as follows: for EC50s, fold increase=[EC50]GR/[EC50]GR+factor; for partial agonist activity and fold Dex induction, fold increase=activityGR+factor/activityGR). The average fold increases were then plotted±S.E.M (n=4).
# CV-1 cells were transiently transfected with GR (6 ng)±TIF2 (20 ng)±STAMP (160 ng) plasmids, GREtkLUC reporter, and Renilla control plasmid, and induced with ethanol± the indicated concentrations of Dex.
# Tests were run to determine whether exogenous STAMP can modulate the EC50 of glucocorticoids and the partial agonist activity of antiglucocorticoids in the transient transfection assays where GR induced gene expression from a GREtkLUC reporter.
# GR = target: T2, GR (Rattus norvegicus, UniProt P06536); assay: Mammalian two-hybrid assay in CV-1 cells with VP16/GR; format: cell-based; settings: VP16/GR ± 1 μM Dex
# T2 construct: plus VP16 fused to the indicated full length receptors; expressed in transfected cells; host or cells: CV-1
# T2 sequence (P06536 1-795): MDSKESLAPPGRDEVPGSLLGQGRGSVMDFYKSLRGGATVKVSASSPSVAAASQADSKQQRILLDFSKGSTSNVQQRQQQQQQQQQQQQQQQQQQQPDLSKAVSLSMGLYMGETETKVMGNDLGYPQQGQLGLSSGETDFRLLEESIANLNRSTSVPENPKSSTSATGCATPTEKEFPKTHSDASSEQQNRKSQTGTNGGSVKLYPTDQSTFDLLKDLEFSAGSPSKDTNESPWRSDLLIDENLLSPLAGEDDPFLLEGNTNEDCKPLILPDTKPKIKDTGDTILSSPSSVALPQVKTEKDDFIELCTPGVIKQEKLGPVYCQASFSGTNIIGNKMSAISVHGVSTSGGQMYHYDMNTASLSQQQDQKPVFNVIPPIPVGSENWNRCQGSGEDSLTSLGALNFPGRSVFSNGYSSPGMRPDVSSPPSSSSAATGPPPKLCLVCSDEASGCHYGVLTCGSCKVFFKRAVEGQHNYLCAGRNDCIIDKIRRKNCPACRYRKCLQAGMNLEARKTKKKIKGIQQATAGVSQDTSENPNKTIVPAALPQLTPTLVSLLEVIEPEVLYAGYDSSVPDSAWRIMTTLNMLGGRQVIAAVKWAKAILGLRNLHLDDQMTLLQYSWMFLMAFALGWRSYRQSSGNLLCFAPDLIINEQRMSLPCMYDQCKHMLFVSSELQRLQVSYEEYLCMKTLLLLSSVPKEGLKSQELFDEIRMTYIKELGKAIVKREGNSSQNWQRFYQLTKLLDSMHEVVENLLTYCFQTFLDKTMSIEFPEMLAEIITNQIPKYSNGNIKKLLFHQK
# From the text: FIGS. 6A and 6B illustrate the domains of STAMP that interact with TIF2.4 (FIG. 6A) and GR (FIG. 6B) in the mammalian two-hybrid assay. […] These CV-1 cells were also transfected with GAL fused to the indicated segments of STAMP along with the FRLuc reporter and Renilla control plasmids. After determining the relative luciferase activities as described in FIG. 2B and 2C, the average values±S.E.M. from 2-5 experiments were plotted. The average fold increase for VP16/TIF2.4 with GAL/STAMP(623-834) in FIG. 6A was 11.0±3.0 (SEM, n=5) above the VP16 control. The values in parentheses above the data bars in FIG. 6B indicate the fold increased interaction ±1 μM Dex.
# These assays were conducted as described (He et al., 2002). In particular, the recommended procedure for the Mammalian Matchmaker two-hybrid assay kit (Clontech) was modified slightly by changing from a chloramphenicol acetyltransferase reporter to a Luciferase Reporter pFRLuc (Stratagene), which is under the control of five repeats of the upstream activating sequence for the binding of GAL4.
# [3] = in the presence of transfected GR and TIF2
molecule,measurement,setting,value
C[C@@H]1C[C@H]2[C@@H]3CCC4=CC(=O)C=C[C@]4(C)[C@@]3(F)[C@@H](O)C[C@]2(C)[C@@]1(O)C(=O)CO [dexamethasone],fold repression of PMA-induced AP-1 expression by Dex-bound GR,[1],about 5 fold
TIF2: glucocorticoid receptor coactivator transcription intermediary factor-2,effect on GR dose-response curve and induction parameters,[2]; TIF2 alone (FIG. 4A1),"similar, small effect"
same,fold repression of PMA-induced AP-1 expression by Dex-bound GR,[1],about 9 fold
same,fold induction by PMA,"[1]; 25 μM PMA, no Dex",unchanged
"1127C: STAMP fragment amino acids 1127 to 1277, C-terminal part of the RID (protein, GAL4 DBD fusion, STAMP fragment amino acids 1127 to 1277, C-terminal part of the RID) TGVVPQHKYHPTAGSYQLQFALQQLEQQKLQSRQLLDQSRARHQAIFGSQTLPNSNLWTMNNGAGCRISSATASGQKPTTLPQKVVPPPSSCASLVPKPPPNHEQVLRRATSQKASKGSSAEGQLNGLQSSLNPAASVPITSSTDPAHTKI",interaction with GR,GR,largest agonist-induced changes
"956-1127: STAMP fragment amino acids 956 to 1127, portion of the RID region (protein, GAL4 DBD fusion, STAMP fragment amino acids 956 to 1127, portion of the RID region) LPRCRSGSHTIGPFSSFQSAAHIYSQKLSRPSSAKAGSCYLNKHHSGIAKTQKEGEDASLYSKRYNQSMVTAELQRLAEKQAARQYSPSSHINLLTQQVTNLNLATGIINRSSASAPPTLRPIISPSGPTWSTQSDPQAPENHSSSPGSRSLQTGGFAWEGEVENNVYSQAT",interaction with GR,GR,largest agonist-induced changes
"STAMP(834-956): STAMP fragment amino acids 834-956, N-terminal portion of the RID (protein, GAL4 DBD fusion, STAMP fragment amino acids 834-956, N-terminal portion of the RID) GDHPETIMEEVKIKPPKQQQTTEIHSDKLSRFTTSAEKEAKLVYSNSSSGPTATLQKIPNTHLSSVTTSDLSPGPCHHSSLSQIPSAIPSMPHQPTILLNTVSASASPCLHPGAQNIPSPTGL",interaction with GR,GR,substantial ligand-independent association
"GAL/N834: STAMP fragment amino acids 1-834, TTL domain and CID region (protein, GAL4 DBD fusion, STAMP fragment amino acids 1-834, TTL domain and CID region) MARDLEETASSSEDEEVISQEDHPCIMWTGGCRRIPVLVFHADAILTKDNNIRVIGERYHLSYKIVRTDSRLVRSILTAHGFHEVHPSSTDYNLMWTGSHLKPFLLRTLSEAQKVNHFPRSYELTRKDRLYKNIIRMQHTHGFKVFHILPQTFLLPAEYAEFCNSYSKDRGPWIVKPVASSRGRGVYLINNPNQISLEENILVSRYINNPLLIDDFKFDVRLYVLVTSYDPLVIYLYEEGLARFATVRYDQGAKNIRNQFMHLTNYSVNKKSGDYVSCDDPEVEDYGNKWSMSAMLRYLKQEGRDTTALMAHVEDLIIKTIISAELAIATACKTFVPHRSSCFELYGFDVLIDSTLKPWLLEVNLSPSLACDAPLDLKIKASMISDMFTVVGFVCQDPAQRASTRPIYPTFESSRRNPFQKPQRCRPLSASDAEMKNLVGSAREKGPGKLGGSVLGLSMEEIKVLRRVKEENDRRGGFIRIFPTSETWEIYGSYLEHKTSMNYMLATRLFQDRMTADGAPELKIESLNSKAKLHAALYERKLLSLEVRKRRRRSSRLRAMRPKYPVITQPAEMNVKTETESEEEEEVALDNEDEEQEASQEESAGFLRENQAKYTPSLTALVENTPKENSMKVREWNNKGGHCCKLETQELEPKFNLMQILQDNGNLSKMQARIAFSAYLQHVQIRLMKDSGGQTFSASWAAKEDEQMELVVRFLKRASNNLQHSLRMVLPSRRLALLERRRILAHQLGDFIIVYNKETEQMAEKKSKKKVEEEEEDGVNMENFQEFIRQASEAELEEVLTFYTQKNKSASVFLGTHSKISKNNNNYSDSGAKG",interaction with GR,GR,relative inactivity
"STAMP623C: STAMP fragment amino acids 623 to 1277, CID and RID but no TTL domain (protein) ENTPKENSMKVREWNNKGGHCCKLETQELEPKFNLMQILQDNGNLSKMQARIAFSAYLQHVQIRLMKDSGGQTFSASWAAKEDEQMELVVRFLKRASNNLQHSLRMVLPSRRLALLERRRILAHQLGDFIIVYNKETEQMAEKKSKKKVEEEEEDGVNMENFQEFIRQASEAELEEVLTFYTQKNKSASVFLGTHSKISKNNNNYSDSGAKGDHPETIMEEVKIKPPKQQQTTEIHSDKLSRFTTSAEKEAKLVYSNSSSGPTATLQKIPNTHLSSVTTSDLSPGPCHHSSLSQIPSAIPSMPHQPTILLNTVSASASPCLHPGAQNIPSPTGLPRCRSGSHTIGPFSSFQSAAHIYSQKLSRPSSAKAGSCYLNKHHSGIAKTQKEGEDASLYSKRYNQSMVTAELQRLAEKQAARQYSPSSHINLLTQQVTNLNLATGIINRSSASAPPTLRPIISPSGPTWSTQSDPQAPENHSSSPGSRSLQTGGFAWEGEVENNVYSQATGVVPQHKYHPTAGSYQLQFALQQLEQQKLQSRQLLDQSRARHQAIFGSQTLPNSNLWTMNNGAGCRISSATASGQKPTTLPQKVVPPPSSCASLVPKPPPNHEQVLRRATSQKASKGSSAEGQLNGLQSSLNPAASVPITSSTDPAHTKI","ability to increase the partial agonist activity of Dex-Mes, retained",[2]; [3],40%
same,"capacity of full length STAMP to increase the fold induction with Dex, retained",[2]; [3],85%
